Results taken from publication PMC2654206.

What was measured:
[1] = tested on: N[C@@H](CCSC[C@@H](O)C(=O)[C@@H](O)CO)C(=O)O; experiment: homocysteine release, DTNB assay; format: biochemical, Vibrio campbellii; details: Co(II) enzyme
[2] = biological target: Cys83 (UniProt position 83, ISPMGCRTGFY); details: free enzyme (no substrate or ligand bound); metal form not stated; cited from earlier work
[3] = tested on: N[C@@H](CCSC[C@@H](O)C(=O)[C@@H](O)CO)C(=O)O; experiment: purified protein; details: Co(II) enzyme
[4] = substrate: N[C@@H](CCSC[C@@H](O)C(=O)[C@@H](O)CO)C(=O)O; experiment: homocysteine release, DTNB assay; format: biochemical, Bacillus subtilis; details: Co(II) enzyme

| Molecule | Km [1] [µM] | kcat [1] [s⁻¹] | kcat/Km [1] [M⁻¹ s⁻¹] | other results |
| --- | --- | --- | --- | --- |
| VhLuxS (Co-VhLuxS) (Vibrio campbellii ATCC BAA-1116; H11Q) | 520 ± 60 | 0.024 ± 0.002 | 47 |  |
| VhLuxS (Co-VhLuxS) (Vibrio campbellii ATCC BAA-1116; E57A) | 98 ± 13 | 0.012 ± 0.001 | 120 |  |
| S-ribosylhomocysteinase (LuxS), EcLuxS (Escherichia coli) |  |  |  | pKa [2]: <6 |
| VhLuxS (Co-VhLuxS) (Vibrio campbellii ATCC BAA-1116; R39M) | 150 ± 20 | 0.016 ± 0.001 | 110 |  |
| VhLuxS (Co-VhLuxS) (Vibrio campbellii ATCC BAA-1116; C83A) | 700 ± 120 | 0.022 ± 0.002 | 31 |  |
| VhLuxS (Co-VhLuxS) (Vibrio campbellii ATCC BAA-1116; E57D) | 730 ± 120 | 0.026 ± 0.003 | 36 |  |
| VhLuxS (Co-VhLuxS) (Vibrio campbellii ATCC BAA-1116) |  |  |  | Km [3]: 27 ± 2 µM; kcat [3]: 0.64 ± 0.02 s⁻¹; kcat/Km [3]: 24000 M⁻¹ s⁻¹ |
| VhLuxS (Co-VhLuxS) (Vibrio campbellii ATCC BAA-1116; S6A) | 40 ± 3 | 0.14 ± 0.01 | 3400 |  |
| BsLuxS (Co-BsLuxS) (Bacillus subtilis subsp. subtilis str. 168) (protein) MPSVESFELDHNAVVAPYVRHCGVHKVGTDGVVNKFDIRFCQPNKQAMKPDTIHTLEHLLAFTIRSHAEKYDHFDIIDISPMGCQTGYYLVVSGEPTSAEIVDLLEDTMKEAVEITEIPAANEKQCGQAKLHDLEGAKRLMRFWLSQDKEELLKVFG |  |  |  | Km [4]: 3.6 ± 0.1 µM; kcat [4]: 0.038 ± 0.001 s⁻¹; kcat/Km [4]: 11000 M⁻¹ s⁻¹ |
